# Experiment: yeast display, Sf9 membrane polyspecificity reagent, FACS + sequencing; frameworks hold sequencing errors
# Method in brief: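 A nanobody's polyreactivity label depends on the gate it was sorted from. Yeast display cells were stained with 10% biotinylated, detergent-solubilized Sf9 membrane reagent for 1 hour at 4 °C, enriched on streptavidin microbeads and sorted by FACS. The low and high (top ~1%) gates were set on anti-HA fluorescence for expression and streptavidin fluorescence for reagent binding.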
row,Sequence,polyreactivity (PSR sort gate)
1,QVQLVESGGCLVQAGGSLRLSCPASGNNFTAYAMGWYRQAPAKERELVAAISSSGRTNYADSVKGRFTISRDNAKNTVYLQMNSLKPEDTAVYYCAAYRLSNPFYKYDYWGQGTQVTVSS,high polyreactivity
2,QVQLVESGGCLVQAGGSLRLSCSASGIIFFPYAMGWYRQAPGKERELVASINISDSSTYYADSVNGRFTISRDNAKNTVYLQMNTLKPEDSAVSYCAADNPGDSWYWHGNWGQGTQVTVSS,low polyreactivity
3,QVQLVESGGCLVQAGGSLRLSFAASGSTLPYYSMGWYRHAPGKERELVAAITSSGGDTYYADSVKGRFTISRDIAKNTVYLQMNSLKPEDTAVYYCAKSFSARSTVRKLFYFAYDYWGQGTQVTVSS,low polyreactivity
4,QVQLVESGGCLVQAGGSLRLSGAASGYTFFFNVMGWYRPAPGKERQMVAAISYSGGSTNYADSVKGRFTISRDNAKITVYLQINSLKPEDTAVYYCNARSVSRNGYQDDYWGQGTQVTVSS,low polyreactivity
5,QVQLVESGGCLVQAGGSLRLSSAASGFIIPGNPMCWYRQAPAKERDLVAAITSGGSTKYADSVKGRITISRDNAKNTDYLQMNSLKPEDTAVYYCAARGFPPGDEWHPYDYWGQGTQVTVSS,low polyreactivity
6,QVQLVESGGCLVQAGGSLRLTCAASGFIFYRYAMGWYRHAPGKESELVAAISKSGSSTYYADSVKGRFTISRDNAKNTVYLQMNSLKPEDTAVYYCARDRQSRSLLEDDYWGQGTQVTVSS,high polyreactivity
7,QVQLVESGGCLVQAGGSRRLSCAASGLTIYHYAMGWYRQATGKERELVAAITNGYSTYYADSVKGRFTISLDNAMNTVYLQMNSLKPEDTAVYSCNADQPGDQHSGYWGQGTQVTVSS,low polyreactivity
8,QVQLVESGGCLVQAGGSVRLSCDASGITFVGNDMGWYRQAPGKERELVAAISSGSTHYADSVKGRFTISRDNAKNTVYLLMNSLKPEDTAFYYCAADIRGGLSNYSPKDYDYWGLGTQVTVSS,low polyreactivity
9,QVQLVESGGCLVQAGGTLRLSCASSGNTFVDYGMGWYRQAPGKERELVAAITRGGTTKYADSVKGRFTISRVNAKNKVYLQMNSLKPEDTAVYYCAAEWPVNFDYWGKGTQVTVSS,low polyreactivity
10,QVQLVESGGCLVQAGRSLRLSCAASGIIFGGNVMGWYRQAAGKERQLVAAINWSVVTTYYADSVKGRFTISRDNAKNTVYLQMNSLKAADTAVYYCNKDYVTAPYFYFIDTMDYWGQGTQGTVSS,low polyreactivity
11,QVQLVESGGDLVQAGGSLRLSCAASGRTFRYYAMGWYRLAPGKERELVAAISSSGDRTYYADSVKGRFTISRDTAKNTVYLQLNSLKPEDTAVYYCAADRGARGDYCGQGTQVTVSS,high polyreactivity
12,QVQLVESGGDLVQAGGSLRLSCAASGRTFSANGMGWYRQAPGKERELVAAITRSGGITYYADSVKGRFTISRDNAKNTVYLQMNSLKPEDTAVYYCAASVYSLSRRSWMDYWGQGTQVTVSS,low polyreactivity
13,QVQLVESGGDLVQAGGSLRLSCAATGYTFLRYTMGWYRQAPGKERELVAAITSGTSTYYADSVKGRFTISRDNEKNTVYLQMNSLKPEDTAVYYCDKTPTRQRYGHWGQGTQVTVSS,high polyreactivity
14,QVQLVESGGGCSGGRSLRLSCAASGLIFVDNAMGWYRQAPGKERELVAAITWSTGSTYYADSVKGRFTISRDNAKNTVYLQMNSLKPEDTAVYYCNKRYKYRYYYWGQGTQVTVSS,low polyreactivity
15,QVQLVESGGGFFQAGGRLRLSCAASGRIFGINAMGWYRQAPGKERELVAAISRSGGRTYYADSVKGRFTISRDNGKNTVYFQMNSLKPEDTAVYDCAQGDAHSYSRYDYWGPGTQVTVSS,high polyreactivity
16,QVQLVESGGGFFQAGGSLRLSCAASGNTFGINAMRWYREAPGKERELVAAISWSGDRTYYADSVKGRFTISRDNAKNTVYLQMNSLKPEDTAVYYCAAGKYRFTYYALEYDYWGQGTQVTVSS,low polyreactivity
17,QVQLVESGGGFVQAGGSLRLICAASGSILHSYSMGWYRQAPGKERELVAAISGSGGSTYYADSVKRRFTISRDNAKNTVYLQMNSLKPEDTAVYYCAAVWSRADRYYYWGQGTQVTVSS,low polyreactivity
18,QVQLVESGGGFVQAGGSLRLRCAASGRTFGWYAMGWYRQAPGKERELVAAITWRGGSTYYADSVKGRFTISRDNAKNTVYLQMNSLKPEDTAVYYCAAAAEKRSYYWGQGTQVTVSS,high polyreactivity
19,QVQLVESGGGFVQAGGSLRLSCAASGFIFRVYAMGWYRPAPGKERELVAAISKRGGSTFYADSVKGRFTISRDNANNTVYLQMNSLKPEDTAVYDCAASARLGYDYWGQGTQVTVSS,high polyreactivity
20,QVQLVESGGGFVQAGGSLRLSCAASGFTFGWYALGWYRQAPGKERELVAAMSFGGSRTYYADSVKGRFSISRDNAKNTVYLQLNILNPEDTAVYYCNVVVGSYSANARSHYWGQGTEVTVSS,high polyreactivity
21,QVQLVESGGGFVQAGGSLRLSCAASGGTFYRYAMGWYRQAPGKERELVAVISRGLRTNYADSVKGRFTISRDNAKNTVYFQMNSLQPEDTAVYYCAAHQYRVYRHGFDYWGQGTQVTVSS,high polyreactivity
22,QVQLVESGGGFVQAGGSLRLSCAASGIIVRANAMGWYRQAPGKERELVAAISSSGGSTFYADSVKGRFTISLDNAKNYVYLQMNSLNPEDTAVYYCAAGRTKFAWSEYEYWGQGTQVTVSS,low polyreactivity
23,QVQLVESGGGFVQAGGSLRLSCAASGNIFESYGMGWYRHAPGKERELVATINSSSGSTYYADSVKGRFTISRDNAKNTVYLQMNSLKPEDTAVYYCAAEWYPYPWGYGYWGQGTQVTVSS,low polyreactivity
24,QVQLVESGGGFVQAGGSLRLSCAASGRTFPEYDMGRYRQAPGKERELVAAISTSGGSTYYADSVKGRFTISRDIAKNTVYLQMNSLKPEDTGVYYCAAQVTSIWGFTYAYRYDYWGQGTHVTVSS,low polyreactivity
25,QVQLVESGGGFVQAGGSLRLSCAASGSIFDQYAMGWSRQAPGKERELVAGISSSGSTYADSVKGRFTISRDNAKNTVYLQMNSLKPEDTAVYSCAKDYGVLGGGTGSDRMDYWGQGSQVTVSS,low polyreactivity
26,QVQLVESGGGFVQAGGSLRLSCAASGSTFHGYAMGWYRQEPGKERELVAAITSSGGSTYYADSVKGRFTISRDNAKNTVYLLMNILNPEVTEVYYCAARRYGWGRAQSSASYDHWGQGTQVTVSS,high polyreactivity
27,QVQLVESGGGFVQAGGSLRLSCAASGSTFRYYAMGWYRQAPGTEREFVAAISWSGSSTYYADSVKGRFTISRDNAKNTVYLQMNSLKPEDTAVYYCAARYRYYGYDYWGQGTQVTVSS,high polyreactivity
28,QVQLVESGGGFVQAGGSLRLSCAASGSTFSPNGMGWYRPAPGKERELVAAISSSTGSTNYADSVKGRFTISRDNAKNTVYLQMNSLKPEDTAVYYCAVDPYVHWTTKLYDYWGQGSQVTVSS,low polyreactivity
29,QVQLVESGGGFVQAGGSLRLSCAASGYIFEWNAMGWYRQAPGKERELVASIDSDGSTYYADSVKGRFTISRDNAKNTVYLQMNSLKPEDTAVYYCNARGYTGGEVLAEYDYWGQGTQVTVSS,low polyreactivity
30,QVQLVESGGGFVQAGGSLRLSCAGSGRIYYRYAMGWYSQERGKERELVAAISGSVGSTYADYVKGRFTISRDNAKNTVYLQMKSLKPEDTAFYYCARETYGRYGAYDYWGQGTQVTVSS,low polyreactivity
